From PMC8858909 (Advances in biological regulation, 2021) come the findings set out here.

Experiment [1] deals with 6xHis-tagged full-length SNX27 (human, UniProt Q96L92 1-541). As to the kind of experiment: pull-down.
The target of experiment [2] is untagged SNX27 FERM domain (human, UniProt Q96L92 273-525). The experiment is described as follows: ITC.
Experiment [3] has as its target untagged full-length SNX27 (human, UniProt Q96L92 1-541). The experiment is described as follows: ITC.

B1: GST-SNX1 residues 1-60 (domain or fragment, human, UniProt Q13596 1-60, looked up)
chain: MASGGGGCSASERLPPPFPGLEPESEGAAGGSEPEAGDSDTEGEDIFTGAAVVSKHQSPK
Take B1: the binding result in experiment [1] is “binds”.

B2: GST-SNX1 (residues 1-90) (domain or fragment, human, UniProt Q13596 1-90, looked up)
chain: MASGGGGCSASERLPPPFPGLEPESEGAAGGSEPEAGDSDTEGEDIFTGAAVVSKHQSPKITTSLLPINNGSKENGIHEEQDQEPQDLFA
With B2, the binding result in experiment [1] is “binds”.
DTEGEDIFTGAAVVSKHQSPKITTSLLPINN (domain or fragment, human, UniProt Q13596 40-70, looked up) [GST-SNX1 residues 40-70]: in experiment [1], the binding result is reported as “binds”.
As for DTEGEDIFTGAAVVSKHQSPKITTSLLPINNGSKENGIHEE (domain or fragment, human, UniProt Q13596 40-80, looked up) [GST-SNX1 residues 40-80], in experiment [1], the binding result is reported as “binds”.

B3: GST-SNX1 residues 1-70 (domain or fragment, human, UniProt Q13596 1-70, looked up)
chain: MASGGGGCSASERLPPPFPGLEPESEGAAGGSEPEAGDSDTEGEDIFTGAAVVSKHQSPKITTSLLPINN
Regarding B3, the binding result in experiment [1] is “binds”.

B4: GST-SNX1 (residues 40-90) (domain or fragment, human, UniProt Q13596 40-90, looked up)
chain: DTEGEDIFTGAAVVSKHQSPKITTSLLPINNGSKENGIHEEQDQEPQDLFA
B4: the binding result in experiment [1] is reported as “binds”.
Consider DTEGEDIFTGAAVVSKHQSPK (domain or fragment, human, UniProt Q13596 40-60, looked up) [GST-SNX1 residues 40-60], for which the binding result in experiment [1] is on record as “binds”.

B5: GST-SNX2_N-terminal (1-139) (domain or fragment, human, UniProt O60749 1-139, looked up)
chain: MAAEREPPPLGDGKPTDFEDLEDGEDLFTSTVSTLESSPSSPEPASLPAEDISANSNGPKPTEVVLDDDREDLFAEATEEVSLDSPEREPILSSEPSPAVTPVTPTTLIAPRIESKSMSAPVIFDRSREEIEEEANGDI
On to B5, for which the binding result in experiment [1] is reported as “binds”.
Turning to EQDQEPQDLFA [SNX1 peptide with the second DxF motif (residues 80-90, DLF)], the binding result in experiment [2] and in experiment [3] was “binds” throughout.

B6: GST-SNX1 residues 1-80 (domain or fragment, human, UniProt Q13596 1-80, looked up)
chain: MASGGGGCSASERLPPPFPGLEPESEGAAGGSEPEAGDSDTEGEDIFTGAAVVSKHQSPKITTSLLPINNGSKENGIHEE
Consider B6, for which, in experiment [1], the binding result is given as “binds”.

B7: GST-SNX1 (residues 40-100) (domain or fragment, human, UniProt Q13596 40-100, looked up)
chain: DTEGEDIFTGAAVVSKHQSPKITTSLLPINNGSKENGIHEEQDQEPQDLFADATVELSLDS
On to B7, for which, in experiment [1], the binding result is “binds”.
For the molecule DTEGEDIFTGA [SNX1 peptide with the first DxF motif (residues 40-50, DIF)], the “fold weaker than the SNX1 N-terminus” value in experiment [2] and in experiment [3] was about 2 fold in each case.

B8: GST-SNX1 (residues 1-142) (domain or fragment, human, UniProt Q13596 1-142, looked up)
chain: MASGGGGCSASERLPPPFPGLEPESEGAAGGSEPEAGDSDTEGEDIFTGAAVVSKHQSPKITTSLLPINNGSKENGIHEEQDQEPQDLFADATVELSLDSTQNNQKKVLAKTLISLPPQEATNSSKPQPTYEELEEEEQEDQ
Take B8: the Kd is 12 µM in experiment [2] and 10 to 12 µM in experiment [3].

One may read the Kd as the equilibrium constant for the complex coming apart.
